# Test results reported in patent US20250090695A1, “IMMUNOSTIMULANT-CYTOTOXIC CONJUGATE COMPOSITION AND METHODS FOR CANCER TREATMENT” (The Research Foundation for the State University of New York, priority 2022, published 2025).
# Columns and labels:
# [1] = in vivo; conditions: C57BL/6J, mouse, total radioactivity
# [2] = Biodistribution in a xenograft model of prostate cancer with PC-3 PiP (PSMA(+)) and PC-3 flu (PSMA(−)) tumors; format: in vivo, Male NCr nude mice; conditions: male, mouse, total radioactivity, PC-3 PiP/PC-3 flu xenograft, NCr nude mice
# Protocol: Biodistribution analyses of ^177Lu-RIMS-1 and ^177Lu-PSMA-617 were carried out in a xenograft model of prostate cancer with a PC-3 PiP tumor (PSMA(+)) on the left shoulder of a murine subject, and a PC-3 flu tumor (PSMA(−)) on the right should of a murine subject. Murine subjects examined were Male NCr nude mice.
# [3] = Biodistribution Bone (% ID/g ± SD)
# [4] = Biodistribution Heart (% ID/g ± SD)
# [5] = Biodistribution Kidney (% ID/g ± SD)
# [6] = Biodistribution Liver (% ID/g ± SD)
# [7] = Biodistribution Muscle (% ID/g ± SD)
# [8] = Biodistribution RM1-PGLS tumor (% ID/g ± SD)
# [9] = Biodistribution Sm Int (% ID/g ± SD)
# [10] = Biodistribution Spleen (% ID/g ± SD)
# [11] = PSMA(+) PC-3 PiP tumor, read-out: Biodistribution PSMA (+) (PC3-PIP) tumor (% ID/g ± SD)
# [12] = PSMA(-) PC-3 flu tumor, read-out: Biodistribution PSMA (−) (PC3-Flu) tumor (% ID/g ± SD)
# [13] = blood, read-out: Biodistribution Blood (% ID/g ± SD)
# [14] = bone, read-out: Biodistribution Bone (% ID/g ± SD)
# [15] = heart, read-out: Biodistribution Heart (% ID/g ± SD)
# [16] = kidney, read-out: Biodistribution Kidney (% ID/g ± SD)
# [17] = liver, read-out: Biodistribution Liver (% ID/g ± SD)
# [18] = small intestine, read-out: Biodistribution Sm Int (% ID/g ± SD)
# [19] = spleen, read-out: Biodistribution Spleen (% ID/g ± SD)
structure (smiles),measurement,setting,value
"CCCCc1nc2c(N)nc3ccccc3c2n1Cc1ccc(CNC(=O)OCc2ccc(NC(=O)[C@H](C)NC(=O)[C@@H](NC(=O)CCCCC(=O)N[C@@H](CCCCNC(=O)CN3CCN(CC(=O)O)CCN(CC(=O)O)CCN(CC(=O)O)CC3)C(=O)NC[C@H]3CC[C@H](C(=O)N[C@@H](Cc4ccc5ccccc5c4)C(=O)NCCCC[C@H](NC(=O)N[C@@H](CCC(=O)O)C(=O)O)C(=O)O)CC3)C(C)C)cc2)cc1 [^177Lu-RIMS-1, metal not drawn]",tissue uptake at 2 h,[1]; [3],1.03 ± 0.43 %ID/g
same,tissue uptake at 24 h,[1]; [3],0.24 ± 0.1 %ID/g
same,tissue uptake at 72 h,[1]; [3],0.14 ± 0.02 %ID/g
same,tissue uptake at 2 h,[1]; [4],0.83 ± 0.09 %ID/g
same,tissue uptake at 24 h,[1]; [4],0.13 ± 0.11 %ID/g
same,tissue uptake at 72 h,[1]; [4],0.03 ± 0.01 %ID/g
same,tissue uptake at 2 h,[1]; [5],15.3 ± 3.61 %ID/g
same,tissue uptake at 24 h,[1]; [5],5.03 ± 2.2 %ID/g
same,tissue uptake at 72 h,[1]; [5],1.66 ± 0.37 %ID/g
same,tissue uptake at 2 h,[1]; [6],23.4 ± 6.93 %ID/g
same,tissue uptake at 24 h,[1]; [6],8.69 ± 1.53 %ID/g
same,tissue uptake at 72 h,[1]; [6],7.28 ± 1.06 %ID/g
same,tissue uptake at 2 h,[1]; [7],0.27 ± 0.08 %ID/g
same,tissue uptake at 24 h,[1]; [7],0.04 ± 0.03 %ID/g
same,tissue uptake at 72 h,[1]; [7],0.02 ± 0.01 %ID/g
same,tissue uptake at 2 h,[1]; [8],1.98 ± 0.37 %ID/g
same,tissue uptake at 24 h,[1]; [8],0.66 ± 0.24 %ID/g
same,tissue uptake at 72 h,[1]; [8],0.23 ± 0.06 %ID/g
same,tissue uptake at 2 h,[1]; [9],0.55 ± 0.3 %ID/g
same,tissue uptake at 24 h,[1]; [9],0.07 ± 0.02 %ID/g
same,tissue uptake at 72 h,[1]; [9],0.05 ± 0.01 %ID/g
same,tissue uptake at 2 h,[1]; [10],10.3 ± 2.96 %ID/g
same,tissue uptake at 24 h,[1]; [10],2.16 ± 0.73 %ID/g
same,tissue uptake at 72 h,[1]; [10],1.14 ± 0.36 %ID/g
same,tissue uptake at 2 h,[2]; [11],7.16 ± 2.68 %ID/g
same,tissue uptake at 24 h,[2]; [11],6.04 ± 1.76 %ID/g
same,tissue uptake at 72 h,[2]; [11],2.65 ± 1.03 %ID/g
same,tissue uptake at 2 h,[2]; [12],1.65 ± 0.24 %ID/g
same,tissue uptake at 24 h,[2]; [12],0.16 ± 0.01 %ID/g
same,tissue uptake at 2 h,[2]; [13],3.36 ± 0.2 %ID/g
same,tissue uptake at 24 h,[2]; [13],0.06 ± 0.01 %ID/g
same,tissue uptake at 72 h,[2]; [13],0.01 ± 0.01 %ID/g
same,tissue uptake at 2 h,[2]; [14],0.72 ± 0.15 %ID/g
same,tissue uptake at 24 h,[2]; [14],0.17 ± 0.06 %ID/g
same,tissue uptake at 72 h,[2]; [14],0.1 ± 0.04 %ID/g
same,tissue uptake at 2 h,[2]; [15],1.28 ± 0.08 %ID/g
same,tissue uptake at 24 h,[2]; [15],0.16 ± 0.02 %ID/g
same,tissue uptake at 72 h,[2]; [15],0.06 ± 0.01 %ID/g
same,tissue uptake at 2 h,[2]; [16],24.5 ± 2.58 %ID/g
same,tissue uptake at 24 h,[2]; [16],6.24 ± 1.03 %ID/g
same,tissue uptake at 72 h,[2]; [16],2.1 ± 0.31 %ID/g
same,tissue uptake at 2 h,[2]; [17],7.95 ± 0.35 %ID/g
same,tissue uptake at 24 h,[2]; [17],3.19 ± 0.38 %ID/g
same,tissue uptake at 72 h,[2]; [17],1.36 ± 0.29 %ID/g
same,tissue uptake at 2 h,"[2]; muscle, read-out: Biodistribution Muscle (% ID/g ± SD)",0.36 ± 0.06 %ID/g
same,tissue uptake at 2 h,[2]; [18],1.15 ± 0.1 %ID/g
same,tissue uptake at 24 h,[2]; [18],0.54 ± 0.8 %ID/g
same,tissue uptake at 2 h,[2]; [19],2.32 ± 0.052 %ID/g
same,tissue uptake at 24 h,[2]; [19],0.77 ± 0.31 %ID/g
same,tissue uptake at 72 h,[2]; [19],0.29 ± 0.11 %ID/g
